Source: the Immune Epitope Database (IEDB)

Key:
HLA-B*44:03 = assay: IEDB peptide-MHC binding, purified MHC/competitive/radioactivity; filed as Kd, often an IC50 or EC50 that approximates it; ≥ and ≤ were set here for values at or beyond the usual limits of such assays
HLA-B*44:02 = assay: as above
HLA-B*08:01 = assay: as above
HLA-A*32:01 = assay: as above
HLA-A*30:02 = assay: as above
HLA-A*01:01 = assay: as above
HLA-A*26:01 [1] = assay: as above
HLA-A*29:02 = assay: as above
HLA-A*30:01 = assay: as above
HLA-B*40:01 = assay: as above
HLA-B*15:01 [2] = assay: IEDB peptide-MHC binding, purified MHC/competitive/fluorescence; filed as Kd, often an IC50 or EC50 that approximates it; ≥ and ≤ were set here for values at or beyond the usual limits of such assays
HLA-B*51:01 = assay: as above
HLA-A*02:01 = assay: as above; conditions: source organism: Escherichia coli 536
HLA-B*46:01 [3] = assay: IEDB peptide-MHC binding, purified MHC/direct/fluorescence; filed as Kd, often an IC50 or EC50 that approximates it; ≥ and ≤ were set here for values at or beyond the usual limits of such assays
HLA-A*24:02 = assay: IEDB peptide-MHC binding, purified MHC/competitive/radioactivity; filed as Kd, often an IC50 or EC50 that approximates it; ≥ and ≤ were set here for values at or beyond the usual limits of such assays
HLA-A*23:01 = assay: as above
HLA-A*26:01 [4] = assay: IEDB peptide-MHC binding, purified MHC/competitive/fluorescence; filed as Kd, often an IC50 or EC50 that approximates it; ≥ and ≤ were set here for values at or beyond the usual limits of such assays; conditions: source organism: Homo sapiens
HLA-B*57:01 = assay: as above; conditions: source organism: Homo sapiens
HLA-B*27:03 = assay: as above; conditions: source organism: Homo sapiens
HLA-A*69:01 [5] = assay: as above; conditions: source organism: Homo sapiens
HLA-B*46:01 [6] = assay: as above; conditions: source organism: Homo sapiens
HLA-A*69:01 [7] = assay: IEDB peptide-MHC binding, purified MHC/direct/fluorescence; filed as Kd, often an IC50 or EC50 that approximates it; ≥ and ≤ were set here for values at or beyond the usual limits of such assays; conditions: source organism: Yellow fever virus
HLA-B*15:01 [8] = assay: as above; conditions: source organism: Yellow fever virus
HLA-B*07:02 = assay: IEDB peptide-MHC binding, purified MHC/competitive/radioactivity; filed as Kd, often an IC50 or EC50 that approximates it; ≥ and ≤ were set here for values at or beyond the usual limits of such assays; conditions: source organism: Dengue virus 2 Jamaica/1409/1983
[9] = source organism: Dengue virus 4 Philippines/H241/1956
[10] = source organism: Vaccinia virus WR
[11] = source organism: Mammarenavirus whitewaterense
[12] = source organism: Dengue virus 3 Martinique/1243/1999
[13] = source organism: Dengue virus 2 Jamaica/1409/1983
[14] = source organism: Dengue virus 1 Brazil/97-11/1997
[15] = source organism: Escherichia coli 536
[16] = source organism: Lymphocytic choriomeningitis virus (strain Armstrong)
[17] = source organism: SARS coronavirus Tor2
[18] = source organism: Mammarenavirus machupoense
[19] = source organism: Mammarenavirus brazilense

AIAVASGLLW
Kd (HLA-B*44:03; [9]): 908 nM
Kd (HLA-B*44:02; [9]): 8800 nM

AIKLGFKSL
Kd (HLA-B*08:01; [10]): 41.3 nM

ATIWRSLSI
Kd (HLA-A*32:01; source organism: Vaccinia virus Copenhagen): 1.89 nM

ATTNAHCALL
Kd (HLA-A*32:01; [11]): ≥ 69900 nM
Kd (HLA-A*30:02; [11]): 6040 nM
Kd (HLA-A*01:01; [11]): 7670 nM
Kd (HLA-A*26:01 [1]; [11]): ≥ 69700 nM
Kd (HLA-A*29:02; [11]): ≥ 71400 nM
Kd (HLA-A*30:01; [11]): 2350 nM

EEHNSTWHY
Kd (HLA-B*44:03; [12]): 68.1 nM
Kd (HLA-B*44:02; [12]): 15.3 nM

EEMFKKRNL
Kd (HLA-B*44:03; [12]): 483 nM
Kd (HLA-B*44:02; [12]): 51.2 nM
Kd (HLA-B*40:01; [12]): 6310 nM

EENVEVEIW
Kd (HLA-B*44:03; [13]): 39.1 nM
Kd (HLA-B*44:02; [13]): 45.1 nM

EKEENLVNSL
Kd (HLA-B*08:01; [13]): 1840 nM

EVKTCIWPKS
Kd (HLA-A*32:01; [14]): ≥ 49500 nM

FRRLRKGSI
Kd (HLA-B*08:01; [10]): 3.01 nM

FSQEEAKLF
Kd (HLA-B*15:01 [2]; source organism: Yersinia pestis Antiqua): 2480 nM

FSSQALVLI
Kd (HLA-B*15:01 [2]; [15]): ≥ 20000 nM
Kd (HLA-B*51:01; [15]): ≥ 20000 nM
Kd (HLA-A*02:01): 692 nM

GEMCEDTVTY
Kd (HLA-B*44:03; [9]): 104 nM
Kd (HLA-B*44:02; [9]): 35.4 nM
Kd (HLA-B*40:01; [9]): 918 nM

GVFPVSIPI
Kd (HLA-A*32:01; [13]): 44.5 nM

GVIMPNGSY
Kd (HLA-B*46:01 [3]; source organism: West Nile virus): 1990 nM

ICISLSNSF
Kd (HLA-A*30:02; [16]): ≥ 76900 nM
Kd (HLA-A*01:01; [16]): ≥ 21400 nM
Kd (HLA-A*26:01 [1]; [16]): ≥ 77900 nM
Kd (HLA-A*29:02; [16]): ≥ 78900 nM
Kd (HLA-A*24:02; [16]): ≥ 77500 nM
Kd (HLA-A*23:01; [16]): ≥ 77700 nM

IDATSTGNY
Kd (HLA-A*30:02; [17]): 8590 nM
Kd (HLA-A*01:01; [17]): 3720 nM
Kd (HLA-A*26:01 [1]; [17]): 1050 nM
Kd (HLA-A*29:02; [17]): 447 nM
Kd (HLA-A*24:02; [17]): ≥ 73800 nM
Kd (HLA-A*23:01; [17]): ≥ 77800 nM

IENLEYTVVV
Kd (HLA-B*40:01; [9]): 157 nM

ITLVYKVYY
Kd (HLA-A*30:02; [17]): 5.19 nM
Kd (HLA-A*01:01; [17]): 44.9 nM
Kd (HLA-A*26:01 [1]; [17]): 1640 nM
Kd (HLA-A*29:02; [17]): 1.64 nM
Kd (HLA-A*24:02; [17]): ≥ 77600 nM
Kd (HLA-A*23:01; [17]): ≥ 57700 nM

ITYPKALVF
Kd (HLA-A*32:01; [10]): 3.02 nM

KIWGRKSWPL
Kd (HLA-B*08:01; source organism: Dengue virus 1 Singapore/S275/1990): 382 nM

KLFNIAQRI
Kd (HLA-A*32:01; [10]): 1.58 nM

KMFTYLMES
Kd (HLA-A*26:01 [4]): ≥ 20000 nM
Kd (HLA-B*57:01): ≥ 20000 nM
Kd (HLA-B*27:03): ≥ 20000 nM
Kd (HLA-A*69:01 [5]): ≥ 20000 nM
Kd (HLA-B*51:01; source organism: Homo sapiens): ≥ 20000 nM
Kd (HLA-B*46:01 [6]): ≥ 20000 nM

KMLDPRQGL
Kd (HLA-A*69:01 [7]): ≥ 10000 nM
Kd (HLA-B*15:01 [8]): 808 nM
Kd (HLA-B*46:01 [3]; source organism: Yellow fever virus): ≥ 20000 nM

KTIVESCGNY
Kd (HLA-A*30:02; [17]): 1.69 nM
Kd (HLA-A*01:01; [17]): 240 nM
Kd (HLA-A*26:01 [1]; [17]): 1350 nM
Kd (HLA-A*29:02; [17]): 844 nM
Kd (HLA-A*24:02; [17]): ≥ 70300 nM
Kd (HLA-A*23:01; [17]): ≥ 70000 nM

KTWGKAKIV
Kd (HLA-A*32:01; [12]): 1260 nM

LAAVSVSPL
Kd (HLA-B*07:02): 125 nM

LCMLNNSLYY
Kd (HLA-A*30:02; [18]): 181 nM
Kd (HLA-A*01:01; [18]): 367 nM
Kd (HLA-A*26:01 [1]; [18]): ≥ 69700 nM
Kd (HLA-A*29:02; [18]): 7.19 nM
Kd (HLA-A*24:02; [18]): ≥ 55200 nM
Kd (HLA-A*23:01; [18]): ≥ 40400 nM

LEKASLIEV
Kd (HLA-B*44:02; [12]): ≥ 77900 nM
Kd (HLA-B*40:01; [12]): 1030 nM

LETLLLLTLL
Kd (HLA-B*40:01; [13]): 101 nM

LGKKKTPRM
Kd (HLA-B*08:01; [13]): 378 nM

LLSEMLNKEY
Kd (HLA-A*32:01; [19]): ≥ 38600 nM
Kd (HLA-A*30:02; [19]): 701 nM
Kd (HLA-A*01:01; [19]): 446 nM
Kd (HLA-A*26:01 [1]; [19]): 15800 nM
Kd (HLA-A*29:02; [19]): 511 nM
Kd (HLA-A*30:01; [19]): 10900 nM

LMGFRNSAL
Kd (HLA-B*08:01; [10]): 1100 nM

LMTGTLAVFL
Kd (HLA-B*08:01; [14]): 1700 nM

LNRRRRTAG
Kd (HLA-B*08:01; [13]): 739 nM
